Measured values taken from article PMC9371724 (2022).

T1: HA69 peptide on HLA DQB1*06:02/DQA1*01:02 (DQ0602) (human)
T1 peptide: AMERNAGSGIIISDT


Biological target: T1, HA69 peptide on HLA …
Test: activation reporter or marker

Binder	binding result
TCR766 (TCR) alpha TRAV17 TRAJ34 CDR3: CATASYNTDKLIF beta TRBV4-3 TRBJ1-5 CDR3: CASSQGATGGSNQPQHF	recognises
…-1 (TCR) alpha TRAV9-2 TRAJ4 CDR3: CALPSLSGGYNKLIF beta TRBV7-8 TRBJ1-3 CDR3: CASSLAGNGNTIYF	no recognition
TCR CAGSSANQAGTALIF / CSARGGQGAPSPLHF (TCR) alpha TRAV35 TRAJ15 CDR3: CAGSSANQAGTALIF beta TRBV20-1 TRBJ1-6 CDR3: CSARGGQGAPSPLHF	recognises
TCR CIVRVGTNQGGKLIF / CASSMGLALETQYF (TCR) alpha TRAV26-1 TRAJ23 CDR3: CIVRVGTNQGGKLIF beta TRBV19 TRBJ2-5 CDR3: CASSMGLALETQYF	recognises
…-1 (TCR) alpha TRAV5 TRAJ8 CDR3: CAEMDTGFQKLVF beta TRBV6-5 TRBJ1-1 CDR3: CASSGQGSTEAFF	no recognition
TCR CATDGGGIGAGSYQLTF / CATSRGGSPPYEQYF (TCR) alpha TRAV17 TRAJ28 CDR3: CATDGGGIGAGSYQLTF beta TRBV15 TRBJ2-7 CDR3: CATSRGGSPPYEQYF	recognises
TCR CATDAYNTDKLIF / CASSQGAVPAGNTIYF (TCR) alpha TRAV17 TRAJ34 CDR3: CATDAYNTDKLIF beta TRBV4-3 TRBJ1-3 CDR3: CASSQGAVPAGNTIYF	recognises
…-1 (TCR) alpha TRAV29/DV5 TRAJ48 CDR3: CAAKGGGNEKLTF beta TRBV12-3 TRBJ1-3 CDR3: CASTPRVLQFSGNTIYF	no recognition
TCR CIVRVLTNQGGKLIF / CSAGSGLGGYNEQFF (TCR) alpha TRAV26-1 TRAJ23 CDR3: CIVRVLTNQGGKLIF beta TRBV20-1 TRBJ2-1 CDR3: CSAGSGLGGYNEQFF	recognises
…-1 (TCR) alpha TRAV10 TRAJ41 CDR3: CVVSEGGYALNF beta TRBV5-1 TRBJ1-5 CDR3: CASSDGTDSNQPQHF	no recognition
TCR CATVAYNTDKLIF / CASSPGRTGGTYYGYTF (TCR) alpha TRAV17 TRAJ34 CDR3: CATVAYNTDKLIF beta TRBV4-3 TRBJ1-2 CDR3: CASSPGRTGGTYYGYTF	recognises
TCR839 (TCR) alpha TRAV12-2 TRAJ37 CDR3: CAVNPPWSNTGKLIF beta TRBV19 TRBJ2-5 CDR3: CASTRGVGTSGAKETQYF	recognises
TCR100 (TCR) alpha TRAV8-3 TRAJ24 CDR3: CAVVTTDSWGKFQF beta TRBV19 TRBJ1-5 CDR3: CASSDSPTGHGNQPQHF	recognises
…-1 (TCR) alpha TRAV38-2/DV8 TRAJ39 CDR3: CAYRSANNAGNMLTF beta TRBV6-5 TRBJ1-5 CDR3: CASRTSGGNQPQHF	no recognition
TCR CALGPGDNQGGKLIF / CASSLAQAPAGETQYF (TCR) alpha TRAV9-2 TRAJ23 CDR3: CALGPGDNQGGKLIF beta TRBV11-1 TRBJ2-5 CDR3: CASSLAQAPAGETQYF	recognises
TCR CAANLDNFNKFYF / CATSRGIQPNEKLFF (TCR) alpha TRAV25 TRAJ21 CDR3: CAANLDNFNKFYF beta TRBV15 TRBJ1-4 CDR3: CATSRGIQPNEKLFF	recognises
TCR CAVGATDSWGKFQF / CASSIDATGHSNQPQHF (TCR) alpha TRAV8-3 TRAJ24 CDR3: CAVGATDSWGKFQF beta TRBV19 TRBJ1-5 CDR3: CASSIDATGHSNQPQHF	recognises
TCR CATVGYNTDKLIF / CASSQGQAATNEKLFF (TCR) alpha TRAV17 TRAJ34 CDR3: CATVGYNTDKLIF beta TRBV4-3 TRBJ1-4 CDR3: CASSQGQAATNEKLFF	recognises
TCR CAVSEGRSNQGGKLIF / CASSSQGRENEQYF (TCR) alpha TRAV8-6 TRAJ23 CDR3: CAVSEGRSNQGGKLIF beta TRBV19 TRBJ2-7 CDR3: CASSSQGRENEQYF	recognises
…-1 (TCR) alpha TRAV10 TRAJ26 CDR3: CVVSPTGGQNFVF beta TRBV6-2 TRBJ2-6 CDR3: CASSYWGLGANVLTF	no recognition

Binder	binding result
…-1 (TCR) alpha TRAV38-2/DV8 TRAJ39 CDR3: CAYRSFNNAGNMLTF beta TRBV28 TRBJ1-6 CDR3: CASTETGSNSPLHF	no recognition
TCR CIASGTYKYIF / CASSKGETGTQWSYEQYF (TCR) alpha TRAV26-1 TRAJ40 CDR3: CIASGTYKYIF beta TRBV4-2 TRBJ2-7 CDR3: CASSKGETGTQWSYEQYF	recognises
TCR CAAFENVLHC / CASSERPYPGETQYF (TCR) alpha TRAV13-1 TRAJ35 CDR3: CAAFENVLHC beta TRBV6-1 TRBJ2-5 CDR3: CASSERPYPGETQYF	recognises
…-1 (TCR) alpha TRAV21 TRAJ46 CDR3: CAVRPKEGSGDKLTF beta TRBV2 TRBJ2-2 CDR3: CASSESGRGPGELFF	no recognition
TCR CAAPGANNLFF / CASSQPHRTSVTGELFF (TCR) alpha TRAV13-1 TRAJ36 CDR3: CAAPGANNLFF beta TRBV4-2 TRBJ2-2 CDR3: CASSQPHRTSVTGELFF	recognises
TCR819 (TCR) alpha TRAV17 TRAJ34 CDR3: CATAAYNTDKLIF beta TRBV4-3 TRBJ1-2 CDR3: CASSQAMTGGSDYGYTF	recognises
…-1 (TCR) alpha TRAV21 TRAJ30 CDR3: CAVGDDKIIF beta TRBV12-3 TRBJ1-1 CDR3: CASSSRSGLKAFF	no recognition
TCR CAAPGANNLFF / CASSGTGGQGYNEQFF (TCR) alpha TRAV13-1 TRAJ36 CDR3: CAAPGANNLFF beta TRBV2 TRBJ2-1 CDR3: CASSGTGGQGYNEQFF	recognises
TCR CAVSRAGANNLFF / CASSQGLGPGLFNQPQHF (TCR) alpha TRAV21 TRAJ36 CDR3: CAVSRAGANNLFF beta TRBV4-3 TRBJ1-5 CDR3: CASSQGLGPGLFNQPQHF	recognises
…-1 (TCR) alpha TRAV2 TRAJ20 CDR3: CAVEDKHDYKLSF beta TRBV9 TRBJ1-2 CDR3: CASSFKEGSNYGYTF	no recognition
TCR CAVQELARLMF / CASSVEGYSSPLHF (TCR) alpha TRAV20 TRAJ31 CDR3: CAVQELARLMF beta TRBV6-1 TRBJ1-6 CDR3: CASSVEGYSSPLHF	recognises
TCR512 (TCR) alpha TRAV13-1 TRAJ23 CDR3: CAAPYNQGGKLIF beta TRBV19 TRBJ1-5 CDR3: CASSIVRGLYSNQPQHF	recognises
TCR867 (TCR) alpha TRAV17 TRAJ34 CDR3: CATDAYNTDKLIF beta TRBV4-3 TRBJ1-3 CDR3: CASSQGRTASGNTIYF	recognises
TCR538 (TCR) alpha TRAV4 TRAJ42 CDR3: CLVGAPSLYGGSQGNLIF beta TRBV7-8 TRBJ2-1 CDR3: CASNPAGAVSYNEQFF	recognises
TCR806 (TCR) alpha TRAV26-1 TRAJ33 CDR3: CIVRGGTNMDSNYQLIW beta TRBV19 TRBJ1-6 CDR3: CASTGQGNSPLHF	recognises
…-1 (TCR) alpha TRAV27 TRAJ26 CDR3: CKYGQNFVF beta TRBV19 TRBJ2-3 CDR3: CASSRPGLNTDTQYF	no recognition
…-1 (TCR) alpha TRAV12-3 TRAJ39 CDR3: CATSYNNAGNMLTF beta TRBV4-2 TRBJ2-5 CDR3: CASSQGTSGEETQYF	no recognition
TCR CATGSYNTDKLIF / CASSPGLAGGTGELFF (TCR) alpha TRAV17 TRAJ34 CDR3: CATGSYNTDKLIF beta TRBV4-3 TRBJ2-2 CDR3: CASSPGLAGGTGELFF	recognises
…-1 (TCR) alpha TRAV9-2 TRAJ8 CDR3: CALSEGSTGFQKLVF beta TRBV7-8 TRBJ1-3 CDR3: CASSVAGNGNTIYF	no recognition
TCR CVHNAGNMLTF / CASSFQGLSTDTQYF (TCR) alpha TRAV25 TRAJ39 CDR3: CVHNAGNMLTF beta TRBV12-3 TRBJ2-3 CDR3: CASSFQGLSTDTQYF	recognises

Binder	binding result
TCR821 (TCR) alpha TRAV26-1 TRAJ23 CDR3: CIVMLTTNQGGKLIF beta TRBV19 TRBJ2-4 CDR3: CASSPGLAGGGSIQYF	recognises
TCR CIVRVGTNMDSNYQLIW / CASSKSYNEQFF (TCR) alpha TRAV26-1 TRAJ33 CDR3: CIVRVGTNMDSNYQLIW beta TRBV19 TRBJ2-1 CDR3: CASSKSYNEQFF	recognises
…-1 (TCR) alpha TRAV2 TRAJ40 CDR3: CAVEDRDSGTYKYIF beta TRBV18 TRBJ2-1 CDR3: CASSPSRGAPEYNEQFF	no recognition
TCR CAVSDRDSGNTPLVF / CASSQGDVNYGYTF (TCR) alpha TRAV8-6 TRAJ29 CDR3: CAVSDRDSGNTPLVF beta TRBV4-3 TRBJ1-2 CDR3: CASSQGDVNYGYTF	recognises
TCR CIVSPHGSGNTGKLIF / CASSIGARGQLFF (TCR) alpha TRAV26-1 TRAJ37 CDR3: CIVSPHGSGNTGKLIF beta TRBV19 TRBJ1-4 CDR3: CASSIGARGQLFF	recognises
TCR872 (TCR) alpha TRAV17 TRAJ34 CDR3: CATVGYNTDKLIF beta TRBV4-3 TRBJ1-4 CDR3: CASSQGLGPTNEKLFF	recognises
TCR CILRGGTNQGGKLIF / CSAEGQGAGNTIYF (TCR) alpha TRAV26-2 TRAJ23 CDR3: CILRGGTNQGGKLIF beta TRBV20-1 TRBJ1-3 CDR3: CSAEGQGAGNTIYF	recognises
…-1 (TCR) alpha TRAV17 TRAJ54 CDR3: CATDAAGAQKLVF beta TRBV19 TRBJ2-1 CDR3: CASSILAGVYNEQFF	no recognition
TCR CALSEAFPPLYNFNKFYF / CASSLFATSGKDTQYF (TCR) alpha TRAV19 TRAJ21 CDR3: CALSEAFPPLYNFNKFYF beta TRBV5-6 TRBJ2-3 CDR3: CASSLFATSGKDTQYF	recognises
TCR CAASMSTNQGGKLIF / CSADRYAYEQYF (TCR) alpha TRAV13-1 TRAJ23 CDR3: CAASMSTNQGGKLIF beta TRBV20-1 TRBJ2-7 CDR3: CSADRYAYEQYF	recognises
…-1 (TCR) alpha TRAV26-2 TRAJ41 CDR3: CILRDSNSGYALNF beta TRBV7-8 TRBJ1-5 CDR3: CASSSGTHRSPQHF	no recognition
TCR CATDSYNTDKLIF / CASSQGAGAQTYYGYTF (TCR) alpha TRAV17 TRAJ34 CDR3: CATDSYNTDKLIF beta TRBV4-3 TRBJ1-2 CDR3: CASSQGAGAQTYYGYTF	recognises
TCR CASAYTGTASKLTF / CASSIDLGGRADGGYTF (TCR) alpha TRAV17 TRAJ44 CDR3: CASAYTGTASKLTF beta TRBV19 TRBJ1-2 CDR3: CASSIDLGGRADGGYTF	recognises
TCR CVVRGQAGTALIF / CASSGHWNTEAFF (TCR) alpha TRAV10 TRAJ15 CDR3: CVVRGQAGTALIF beta TRBV19 TRBJ1-1 CDR3: CASSGHWNTEAFF	recognises
…-1 (TCR) alpha TRAV8-6 TRAJ42 CDR3: CAVMGYGGSQGNLIF beta TRBV4-3 TRBJ2-1 CDR3: CASSQELGVYNEQFF	no recognition
TCR CATDSYNTDKLIF / CASSQGLGPTNYGYTF (TCR) alpha TRAV17 TRAJ34 CDR3: CATDSYNTDKLIF beta TRBV4-3 TRBJ1-2 CDR3: CASSQGLGPTNYGYTF	recognises
…-1 (TCR) alpha TRAV19 TRAJ45 CDR3: CALSEDAGGGADGLTF beta TRBV12-3 TRBJ2-5 CDR3: CASRRHQQETQYF	no recognition
…-1 (TCR) alpha TRAV8-4 TRAJ9 CDR3: CAVNGGFKTIF beta TRBV6-1 TRBJ2-1 CDR3: CASRDRNQYNEQFF	no recognition
…-1 (TCR) alpha TRAV20 TRAJ52 CDR3: CAVQAPGTSYGKLTF beta TRBV24-1 TRBJ2-3 CDR3: CATSVGTSGYTQYF	no recognition
